From article PMC9851377

Molecular target: CD3 on T lymphocytes (human (endogenous in T lymphocytes from PBMCs)) (UniProt P07766)
Experiment: FACS; dimer; binding to T lymphocytes

Sequence of UniProt P07766 (P07766 23-207): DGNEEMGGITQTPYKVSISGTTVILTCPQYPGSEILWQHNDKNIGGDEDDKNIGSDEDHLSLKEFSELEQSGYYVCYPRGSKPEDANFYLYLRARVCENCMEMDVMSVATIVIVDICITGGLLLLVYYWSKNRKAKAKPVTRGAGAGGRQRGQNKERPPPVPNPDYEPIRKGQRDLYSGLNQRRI

“dimeric γδ_(ECTO)-αCD3 (AJ8 TCR, 3(G4S) linker), purified dimer fraction (from UniProt Q99603)” was tested, and the EC50 was 0.17 µg/mL.
